For one substance, Kd, koff and kon results are on record in article PMC10215022.

Experiment [1] addresses SARS-CoV-2 Delta (B.1.617.2) spike protein RBD, His-tagged (SARS-CoV-2 Delta (B.1.617.2)) (UniProt P0DTC2). Nature of the experiment: SPR. Background: SPR reads the build-up and loss of mass on a sensor chip optically.
Experiment [2] addresses SARS-CoV-2 Omicron (B.1.1.529) spike protein RBD, His-tagged (SARS-CoV-2 Omicron (B.1.1.529)) (UniProt P0DTC2). Nature of the experiment: SPR.

By Kd is commonly meant a measure of binding affinity in units of concentration. Higher therefore signals a looser complex. By koff is commonly meant the rate constant with which the complex falls apart. Low values mean slow dissociation, high ones fast dissociation. In general, kon refers to the rate constant with which the complex forms. Read a low kon as slower complex formation. In experiment [1], “decavalent IgM ACE2 decoy (from UniProt Q9BYF1;P01591) (Fc fusion)” registered a Kd of 0.49 nM, a koff of 0.00013 s⁻¹ and a kon of 260000 M⁻¹ s⁻¹. In addition, in experiment [2], the Kd came out at 2.4 nM, the koff came to 0.00036 s⁻¹ and the kon was 150000 M⁻¹ s⁻¹.
